The text below walks through data of article PMC7229763.

This series has as its target T1, BAF-WT (Homo sapiens, UniProt O75531 1-89).
T1 sequence: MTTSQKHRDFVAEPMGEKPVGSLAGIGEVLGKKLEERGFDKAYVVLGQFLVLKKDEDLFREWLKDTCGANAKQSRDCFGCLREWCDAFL
Nature of the series: ITC.

B1: ITC dsDNA (30 bp, same sequence as EMSA probe) (dsDNA)
DNA 1: GAATCCTAACTGGGCGGAGTTATGCTGGTG
DNA 2: CACCAGCATAACTCCGCCCAGTTAGGATTC
Consider B1, for which the Ka is 1.89 ± 0.19 uM (as printed for KA; dimension inconsistent, possibly 10^6 M-1).
